How the values were obtained:
[1] = target: vacant 70S ribosomes from E. coli MRE600 (E. coli); experiment: FRET; 4°C; 70S labelled at L23 with MDCC
[2] = target: vacant 70S ribosomes from E. coli MRE600 (E. coli); experiment: FRET; 25°C; 70S labelled at L23 with MDCC
[3] = target: vacant 70S ribosomes from E. coli MRE600 (E. coli); experiment: 25°C
[4] = target: Lep75-RNC (ribosome-nascent-chain complex carrying 75 N-terminal amino acids of leader peptidase) (E. coli | , UniProt P00803 1-75, f[3H]Met at the N-terminus; nascent chain bound to tRNA); experiment: 25°C

B1: single-labelled SecYEG(Bpy) (complex)
chain 1: MAKQPGLDFQSAKGGLGELKRRLLFVIGALIVFRIGSFIPIPGIDAAVLAKLLEQQRGTIIEMFNMFSGGALSRASIFALGIMPYICASIIIQLLTVVHPTLAEIKKEGESGRRKISQYTRYGTLVLAIFQSIGIATGLPNMPGMQGLVINPGFAFYFTAVVSLVTGTMFLMWLGEQITERGIGNGISIIIFAGIVAGLPPAIAHTIEQARQGDLHFLVLLLVAVLVFAVTFFVVFVERGQRRIVVNYAKRQQGRRVYAAQSTHLPLKVNMAGVIPAIFASSIILFPATIASWFGGGTGWNWLTTISLYLQPGQPLYVLLYASAIIFFCFFYTALVFNPRETADNLKKSGAFVPGIRPGEQTAKYIDKVMTRLTLVGALYITFICLIPEFMRDAMKVPFYFGGTSLLIVVVVIMDFMAQVQTLMMSSQYESALKKANLKGYGR
chain 2: MSANTEAQGSGRGLEAMKWVVVVALLLVAIVGNYLYRDIMLPLRALAVVILIAAAGGVALLTTKGKATVAFAREARTEVRKVIWPTRQETLHTTLIVAAVTAVMSLILWGLDGILVRLVSFITGLRF
chain 3: MYEALLVVFLIVAIGLVGLIMLQQGKGADMGASFGAGASATLFGSSGSGNFMTRMTALLATLFFIISLVLGNINSNKTNKGSEWENLSAPAKTEQTQPAAPAKPTSDIPN
modifications: BODIPY FL (maleimide derivative) on Cys87
[1]
  Kd: 10 nM
[2]
  Kd: 20 nM

B2: double-labelled SecYEG(Bpy/Trp) (complex)
chain 1: MAKQPGLDFQSAKGGLGELKRRLLFVIGALIVFRIGSFIPIPGIDAAVLAKLLEQQRGTIIEMFNMFSGGALSRASIFALGIMPYICASIIIQLLTVVHPTLAEIKKEGESGRRKISQYTRYGTLVLAIFQSIGIATGLPNMPGMQGLVINPGFAFYFTAVVSLVTGTMFLMWLGEQITERGIGNGISIIIFAGIVAGLPPAIAHTIEQARQGDLHFLVLLLVAVLVFAVTFFVVFVERGQRRIVVNYAKRQQGRRVYAAQSTHLPLKVNMAGVIPAIFASSIILWPATIASWFGGGTGWNWLTTISLYLQPGQPLYVLLYASAIIFFCFFYTALVFNPRETADNLKKSGAFVPGIRPGEQTAKYIDKVMTRLTLVGALYITFICLIPEFMRDAMKVPFYFGGTSLLIVVVVIMDFMAQVQTLMMSSQYESALKKANLKGYGR
chain 2: MSANTEAQGSGRGLEAMKWVVVVALLLVAIVGNYLYRDIMLPLRALAVVILIAAAGGVALLTTKGKATVAFAREARTEVRKVIWPTRQETLHTTLIVAAVTAVMSLILWGLDGILVRLVSFITGLRF
chain 3: MYEALLVVFLIVAIGLVGLIMLQQGKGADMGASFGAGASATLFGSSGSGNFMTRMTALLATLFFIISLVLGNINSNKTNKGSEWENLSAPAKTEQTQPAAPAKPTSDIPN
modifications: BODIPY FL (maleimide derivative) on Cys87
[3]
  Kd: 20 nM
[4]
  Kd: 10 nM
